Measured values reported in patent US20070099822A1, “Regulation of tissue mineralization and phosphate metabolism by asarm peptides” (priority 2003, published 2007).
Where “and” joins values, the source holds several entries; their conditions need not be identical. Equal entries are not always repeated.

Columns and labels:
[1] = tested on: Na+ dependent phosphate co-transport in primary human renal proximal tubule epithelial cells (RPTEC); test: 33PO4 uptake scintillation proximity assay (SPA) in RPTEC; type: cell-based
Description: (§1) Measurement of ^33PO4 uptake and ^14C-α-methyl D-glucose uptake. A novel technique, scintillation proximity assay (SPA), was used to measure ^33PO4 uptake in-vitro. Human renal proximal-tubule primary cells (RPTEC) were purchased from Clonetics-Biowhittaker (Walkersville, Md.) (cat. no. CC2553) and were cultured and subcultured using the manufacturers recommended protocols, methods, buffers and media (cat. nos. CC3190, CC5034). Also a human renal cell-line (Hu-CL8) was cultured as previously described (Rowe et al. Candidate 56 and 58 kDa protein(s) responsible for mediating the renal defects in oncogenic hypophosphatemic osteomalacia. Bone 18(2):159-169, 1996). For ^33PO4-uptake measurement cells were grown in REBM media supplemented with 5% fetal calf serum (REBM-FCS) to 80% confluence (Clonetics-Biowhitaker, Walkersville, Md.: cat. nos. CC2553, CC3190 and CC5034) and seeded into 96 well (3000 cells/well) cytostar-T scintillating-microplates (Amersham-Pharmacia Biotech, Piscataway, N.J.: cat. no. RPNQ 0162). Cells were then cultured in 200 μL of REBM-FCS media for 24 h. Media was then replaced with serum free media (REBM) and the cells incubated for a further 3-4 h with Hu-MEPE, PTH (1-34) or media control respectively in REBM media. The concentrations of PTH (1-34) and Hu-MEPE were […] and each experimental dose was repeated eight times for statistical analysis. Following incubation media was removed and replaced with either phosphate uptake buffer (PUB) consisting of 150 mM NaCl/1 mM Cacl2/1.8 mM MgSO4/10 mM HEPE pH 7.0/0.1 mM phosphate buffer pH 7.0 and 3 uCi mL^−1 33P as orthophosphoric acid (18 MBq/mL or 5775.7 Gbq/mg stock solution Perkin Elmer, Wellesley, Mass.: cat. no. NEZ080). In order to determine the Na-dependent phosphate co-transporter activity a separate set of control cells were incubated with the same buffer but with choline chloride (150 mM) substituted for NaCl (CHUB buffer). After 10 min at 37° C. the reaction was terminated by removing the PUB and CHUB buffers and replacing with STOP buffer (CHUB buffer without radioisotope). The cytostar scintillation plates were then directly assayed for counts (CPM) using a Hewlett-Packard (Palo Alto, Calif.) Multiplate Top-counter calibrated for ^33P SPA assay. Due to the unique design of the 96 well cytostar-plate radioactive decay in solution is not detected by the counter. In contrast, radioisotope attached to or taken into the cells initiates release of plastic-scintillant photons that are detected by the top-counter photo-multiplier tube. Thus, no washes are required and direct CPM can be counted in living cells. Following CPM determination the buffers were removed from the living cells and fresh media supplemented with cell-titre-96 (Promega-Biotech, Madison, Wis.: cat. no. G5421) cell-number detection media. Cells were then further incubated at 37° C. for 4 h. Conversion of a tetrazolium salt to a colored formazan product by living cells was then measured at 490 nm using a 96 well multi-well spectrophotometer with KC-4 software (absorbance at 490 nm is directly proportional to the number of living cells). Na-dependent ^33P uptake was then calculated by subtracting background counts and the choline chloride non Na-dependent ^33P uptake and results expressed as ^33PO4 femtomoles/10^4-cells/6 min. […]

[2] = tested on: Na+ dependent phosphate co-transport in human renal proximal tubule cell-line (Hu-CL8); test: 33PO4 uptake scintillation proximity assay (SPA) in Hu-CL8; type: cell-based
Description: as §1, with “After 10 min at 37° C. the reaction was terminated by removing the PUB and CHUB buffers and replacing with STOP buffer (CHUB buffer without radioisotope). The cytostar scintillation plates were then directly assayed for counts (CPM) using a Hewlett-Packard (Palo Alto, Calif.) Multiplate Top-counter calibrated for ^33P SPA assay.” left out, “Following CPM determination the buffers were removed from the living cells and fresh media supplemented with cell-titre-96 (Promega-Biotech, Madison, Wis.: cat. no. G5421) cell-number detection media. Cells were then further incubated at 37° C. for 4 h.” left out

B1: Hu-MEPE: purified insect expressed full-length recombinant human MEPE (Matrix Extracellular Phosphoglycoprotein) (protein)
chain: PTFQPQTEKTKQSCVEEQRQEEKNKDNIGFHHLGKRINQELSSKENIVQERKKDLSLSEASENKGSSKSQNYFTNRQRLNKEYSISNKENTHNGLRMSIYPKSTGNKGFEDGDDAISKLHDQEEYGAALIRNNMQHIMGPVTAIKLLGEENKENTPRNVLNIIPASMNYAKAHSKDKKKPQRDSQAQKSPVKSKSTHRIQHNIDYLKHLSKVKKIPSDFEGSGYTDLQERGDNDISPFSGDGQPFKDIPGKGEATGPDLEGKDIQTGFAGPSEAESTHLDTKKPGYNEIPEREENGGNTIGTRDETAKEADAVDVSLVEGSNDIMGSTNFKELPGREGNRVDAGSQNAHQGKVEFHYPPAPSKEKRKEGSSDAAESTNYNEIPKNGKGSTRKGVDHSNRNQATLNEKQRFPSKGKSQGLPIPSRGLDNEIKNEMDSFNGPSHENIITHGRKYHYVPHRQNNSTRNKGMPQGKGSWGRQPHSNRRFSSRRRDDSSESSDSGSSSESDGD
Q: For B1, which “Vmax of percentage inhibition of 33PO4-uptake” value [1] is on record?
A: The value was 53.4%.

Q: And the “inhibition of Na+ dependent phosphate co-transport” value [1]?
A: Its value is “dose-dependent in-vitro inhibition”.

Q: What about the “Km of inhibition of 33PO4-uptake” value ([1]; lineweaver-burke plot) of the same molecule?
A: The value was 27.4 ng/mL and 27.39 ng/mL.

Q: And the “Vmax of percentage inhibition of 33PO4-uptake” value ([2]; Hu-CL8)?
A: Its value is 9.1%.

Q: And the “inhibition of Na+ dependent phosphate co-transport” value ([2]; Hu-CL8)?
A: Its value is “dose-dependent in-vitro inhibition”.

Q: And the “Km of inhibition of 33PO4-uptake” value ([2]; Hu-CL8, lineweaver-burke plot)?
A: The value was 23.8 ng/mL.
